Experimental data from the nanobody polyreactivity screen of Harvey et al. (2022).

Assay: yeast display, Sf9 membrane polyspecificity reagent, FACS + sequencing; frameworks hold sequencing errors
How it was run: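 Galactose induction of a Saccharomyces cerevisiae BJ5465 synthetic nanobody display library ran 36–48 hours. The cells were then stained for 1 hour at 4 °C with 10% biotinylated, detergent-solubilized Sf9 membrane reagent, pulled down on streptavidin microbeads and FACS-sorted into low and high (top ~1%) gates on expression and reagent-binding fluorescence. Labels for polyreactivity follow the gate of origin.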

| Sequence | polyreactivity (PSR sort gate) |
| --- | --- |
| QVQLVESGGGLVQAGGRLRLSCAASGRIFYLNAMGWYRQAPGKETELVAAINTSGDATYYADSEKGRFTISRDIAKNTVYLQMNSLKPEDTAVYYCAAYVIGPDQFIYDYWGQGPQVTVSS | low polyreactivity |
| QVQLVESGGGLVQAGGRLRLSCAASGRIFYNYAMGWYRQAPGKERELVAAISVSGGSTYYADSVKGRFTISRDNAKNTVYLQMISMKPEDTAVYYCATYSSRQRKSSYYYGGQGTQVTVSS | high polyreactivity |
| QVQLVESGGGLVQAGGRLRLSCAASGRSFYSYTMGWYRQAPGKERELVAAIRKSGGRTYYADSVKGRFTISRDNAKNTVYLQMNSLKPEDTAVYYCATTNYELSYYYWGQGTQVTVSS | high polyreactivity |
| QVQLVESGGGLVQAGGRLRLSCAASGRTFANYARGGYRQAPGTERELVAAITSGGRTYYADSVKGRFTISRDNAKNTVYLQMNSLKPEDTPVYYCAAEITYLYDYWGQGTQVTVSS | high polyreactivity |
| QVQLVESGGGLVQAGGRLRLSCAASGRTFDRMLMGWYRQAPGKERELVAAITSGGRTNYADSVKGRFTISRDNAKNTVYLQMNSLKPEDTAVYYCAKRASALLRHSYDYWGQGTQVTVSS | low polyreactivity |
| QVQLVESGGGLVQAGGRLRLSCAASGRTFGWYAMGWYRQAPGKERELVASITQRGGRTYYADSVKGRFTISRDNAKNTVYLQMNSLKPEDTAVYYCAAKTSPGMYYWGQGTQVTVSS | high polyreactivity |
| QVQLVESGGGLVQAGGRLRLSCAASGRTFPWNVMGWYRQAPGKERELVAAISWSSGRTYYADSVKGRFTISRDNAKNTVYLQMNSLKPDDTAVYYCAKRYRPYRGNSGNDYWGQGTQVTVSS | high polyreactivity |
| QVQLVESGGGLVQAGGRLRLSCAASGRTFRGYAMGWYRQAPGKERELVAAITSGGSTNYADSVKGRFTISRDNAKYTVYLQMTSLKPEDTAVYYCAAEPYSWDTWVDYDYWGQGTQVTVSS | low polyreactivity |
| QVQLVESGGGLVQAGGRLRLSCAASGRTFRPYAMGWYRQAPGKERELVAAITSGGSTYYADSVKGRFTISRDNAKNTVYFQMNSLKPEDTAVYYCNAKYYYQPPYDYWGQGTQVTVSS | low polyreactivity |
| QVQLVESGGGLVQAGGRLRLSCAASGRTFTVYAMGWYRQAPGKEREFVAAITERGGSTYYADSVKGRFTISRDNAKNTVYLKMNSLKPEDTSVYYFAAVFYWRPGWYVRFDYWGQGTQVTVSS | low polyreactivity |
| QVQLVESGGGLVQAGGRLRLSCAASGRTFVQYAIAWYRQAPGKEREFVAAISSRVGSTYYADSVKGRFTISRDNAKNTVYLQMNSLKPEDTAVYYCNRDLVPRFDYWGQGTQVTVSS | low polyreactivity |
| QVQLVESGGGLVQAGGRLRLSCAASGSICEPYVMGWYIQAPGKERELVAAIRQTGGSTYYADSVKGRFTISRDNAKNTVYLQMNSLKPEDTAVYYCNAEQKPSGLYDYRGVEGEMGYWGQGTQVTVSS | low polyreactivity |
| QVQLVESGGGLVQAGGRLRLSCAASGSIFEGYVMGWYRQAPGKERELVAAITTGGGSTYYADSVKGRFTISRDNAKNTVYLQMNSLKPEDTAVYYCAKDGGRWGQGTQVTVSS | low polyreactivity |
| QVQLVESGGGLVQAGGRLRLSCAASGSIFGEYAMGWYRQAPGKERELVADITTGGNTNYADSVKGRFTISRDNAKNTVYLQMNSLKPEDTAVYYCNAYGNTYGYWWFGYWGQGTQVTVSS | low polyreactivity |
| QVQLVESGGGLVQAGGRLRLSCAASGSIFGFYAMGWYRPAPGKERELVAGISVSDGSTYYADSVKGRFTISRDNAKNTVYLQMNSLKPEDTAVYYCAASPRGSYGYYYWGQGTQVTVSS | low polyreactivity |
| QVQLVESGGGLVQAGGRLRLSCAASGSIFITYAMGWYRQAPGKEMELVAAIRDSGDRTYYADSVKGRFTISRDNAKNTVYLQMNSLKPEDTAVYYCNARWQEPLKYDYWGQGTQVTVSS | low polyreactivity |
| QVQLVESGGGLVQAGGRLRLSCAASGSIFQYNAMGWSRQAPGKERELVAAISRSGGSTYYADSVKGRFTISRDNAKNTVYLQMNSLKPEDTAVYYCHAVLGYYSPYDYWGQGTQVTVSS | low polyreactivity |
| QVQLVESGGGLVQAGGRLRLSCAASGSIFRIYTMGWYRQEPGKERELVAAINSGGSTNYADSVKGRFTISRDNAKNTVYLQMNSLKPEDTAVYYCAATWWQYDQGLHRYDYWGQGTQVTVSS | high polyreactivity |
| QVQLVESGGGLVQAGGRLRLSCAASGSIFRSNAMGWYRLAPGKEREFVAASTRSGGSTYYADTVKGRFTISRDNAKNTVYLQMNSLKPAATAVYYCAADWKSYAYYYWGQGTQVTVSS | high polyreactivity |
| QVQLVESGGGLVQAGGRLRLSCAASGSIFSSNAMGWYRQAPGKERELVASIRGSGVSTYYADSVKGRFTISRDNAKNTVYLQMNSMKPEDTAVYYCAARYGRSYFGYYFWGQGTQVTVSS | high polyreactivity |
| QVQLVESGGGLVQAGGRLRLSCAASGSISASYAMGWSRQAPGKERELVAAITSGGSTYYADSVKGRFTFSRDNAKNTVYFQMNSLKPEETAVYYCAKRPKRTYYPHIGYDYWGQGTQVTVSS | low polyreactivity |

| Sequence | polyreactivity (PSR sort gate) |
| --- | --- |
| QVQLVESGGGLVQAGGRLRLSCAASGSISYFNDMGWYRQAPGKERELVAAIRDSGGITYADSVKGRFTISRDNAKNTVYLQMNSLKPEDTAVYYCATYGNEIYDYWGQGTQVTVSS | low polyreactivity |
| QVQLVESGGGLVQAGGRLRLSCAASGSIVGLYVMGWYRQAPGKERELVATITSGGSTYYADSVKGRFTISRDNAKNTDYLQMNSLKPEDTAVYYSAADPQDAADLPDLFYDYDYWGQGTQVTVSS | low polyreactivity |
| QVQLVESGGGLVQAGGRLRLSCAASGSTFAIYGMGWYRQAPGKERELVAGITRGGSTNYADSVKGRFTISRDNAKNTVYLQMNSLKPEDTAVYYCNSPFGVRRFKTKGRSHYEYWGQGTQVTVSS | high polyreactivity |
| QVQLVESGGGLVQAGGRLRLSCAASGSTFEEYAMGWYRQAPGKERELVAGITWGGGSTYYADSVKGRFTISRDNAKNTVYLQMNSQKPEDTAVYYCAAEPGWYADTPASDSKYDYWGQGTQGTVSS | low polyreactivity |
| QVQLVESGGGLVQAGGRLRLSCAASGSTFGYYARGWYRQAPGKERELVAAISTSSGSKYFADSVKGRFTISRDNAKNTVYLQMNSLKPEDTAVYYCNARKASYRSIYYYWGQGTQVTVSS | high polyreactivity |
| QVQLVESGGGLVQAGGRLRLSCAASGSTFIDYAMGWYRPAPGKERELVAAITNGGNTKYADSVKGRFTISRDNAKNTVYLQMKSLKPEDTSVDYCSREPSIFTSSYDYWGQGTQVTVSS | low polyreactivity |
| QVQLVESGGGLVQAGGRLRLSCAASGSTFIYYAMGWYRQAPGKERELVAAITGRGTRTYYADSVKGRFTISRDNAKNTVYLQMNSLKPEDTAVYYCNTLQTYLYDYWGQGTQVTVSS | high polyreactivity |
| QVQLVESGGGLVQAGGRLRLSCAASGSTFQRYAMGWYRQAPGKDRELVAAISSTGGSTFYADSVKGRFTISRDTAKNTVYLHMNSLKPEDTAVYYCNKYRATNSARDYWGQGTQVTVSS | high polyreactivity |
| QVQLVESGGGLVQAGGRLRLSCAASGSTFSDYAMGWYRQAPGKERELVADISRSGASTYYADSVKGRFTISRYNAKNTVYLQMNSLKPEDTPVYSSNKAYSGVRYDSWGPGTQVTVSS | low polyreactivity |
| QVQLVESGGGLVQAGGRLRLSCAASGSTFVWYAMVWYRQAPGKEREFVATISWSDGSTYYADSVKGRFTISRDNAKNTVYLQLNSLIPEDTAVYYCASDVDRFFTYKYDYWGQGTQVTVSS | low polyreactivity |
| QVQLVESGGGLVQAGGRLRLSCAASGSTIPRNAMGWYRHAPGKERELVAAITSGGSTNYADSVKGRFTISRDNAKNTVYLQMNSLKPEDTAVYYCAADEQVNTQYVVWGDYWGQGTQVTVSS | low polyreactivity |
| QVQLVESGGGLVQAGGRLRLSCAASGSTLIRNVMGWYRQAPGKERELVAAINTRGTTTYYADSVKGRFTISRDKAKNTVYLQMNSLKPEDTAVSYCAARTPHYSYGYWGQGTHVTVSS | high polyreactivity |
| QVQLVESGGGLVQAGGRLRLSCAASGSTLSGNAMGGYRQAPGKERELVAAITSSGGRTYYADSVKGRFTISRDNAKNTVYLQMNSLKPEDTAVYYCAKDRYGWGQGTQVTVSS | high polyreactivity |
| QVQLVESGGGLVQAGGRLRLSCAASGSTSQSNAMGWYRQAPGKERELVAAISWSGTSTYYADSVKGRFTISRDNAKNTVYLQMNSLKPEDTAVYYCAADYIFDYDYWGQGTQVTVSS | low polyreactivity |
| QVQLVESGGGLVQAGGRLRLSCAASGTIFPLNAMGWYRQAPGKERELVATISSGGSTYYADSVKGRFTISRDNAKNTVYLQMNSLKPEFTAVYYCAADSWVQFEYWGQGTQVTVSS | low polyreactivity |
| QVQLVESGGGLVQAGGRLRLSCAASGTTAENVMGWYRQAPGKERELVAAISSRGGSTYYADSVKGRFTISRDNAKNTVYLQKNSLKPEDTAVYYCAAEYVSHFSGYRYDYWGQGTHVTVSS | low polyreactivity |
| QVQLVESGGGLVQAGGRLRLSCAASGTTFFLYAMGWYRQAPGKERELVASISDGSSTNYADSVKVRFTISRDNAKNTVYLQMNSLKPEDTAVYYCAADFERRRYDYWGQGTQVTVSS | low polyreactivity |
| QVQLVESGGGLVQAGGRLRLSCAASGYIFNYDMGWYRPAPGKERELVAAINYSGRTYYADSVKGRFTISRDNAKNTVYLQMNRLKAEDTAVYYCAARIIVDDVGTKYYYWGQGTQVTVSS | high polyreactivity |
| QVQLVESGGGLVQAGGRLRLSCAASGYTFSIYDMGWYRPAPGKERELVAAISWSGGSTYYADSVKGRFTISRDHAKNTVYLQMNSLKPEDTAVYYCAAKRHGSEVGRGRDYWGQGTQVTVSS | high polyreactivity |
| QVQLVESGGGLVQAGGRLRLSCADSGRIFLYYAKGWYRQAPGKEPELVAAISGGGGRTYYADSVKGRFTISRDNAKNTVYLQMNSLKPEDTAVYYWAAGVYTGQHEFDYWGQGTQVTVSS | low polyreactivity |
